Assay results reported in the supplement of paper PMC9170038.

System: MS2 coat protein
Assay: apparent KD of MS2 coat protein; designed switch direction (-1 OFF switch, 1 ON switch): -1; higher = weaker reporter binding
Outline: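 Transcription of designed RNA switches on Illumina chips was done by stalled E. coli RNA polymerase. SNAP-549-labelled MS2 coat protein was then titrated in doubling steps from 0.7 or 1.5 nM to 3 µM, with steps of 0.8–1.5 h at the lowest and 10–20 min at the highest concentration. The per-design median over clusters of curve-fitted normalised fluorescence is reported as apparent KD.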

[1] = Eterna round: R95, input ligand: microRNA oligo, concentration not stated
[2] = input ligand: microRNA oligo, concentration not stated
[3] = Eterna round: R95, input ligand: FMN 200 uM
[4] = Eterna round: R95, input ligand: none

Sequence | apparent KD of MS2 coat protein (input ligand: FMN 200 uM) | apparent KD of MS2 coat protein (input ligand: none) | further results
UUAUUUAGUGUGAGGAUAUGCUGGUCGAUAGAUCAGCAGAAGGCACAUGAGGAUCACCCAUGUAAUAUAUUAAA [Mat - Exclusion 4 - JL Mod - D34] (puzzle: Brourd's mod of Exclusion 4) |  |  | apparent KD of MS2 coat protein [1]: 51.5 nM
UUCACAUGGACAUAAGAUCACAUGAGGAUCACCCAUGUGAAUAACAAGCUUUUUGCUCGUCUUAUGUCCAAUAAUAG [Stov1/14-A2] (Eterna round: R97, puzzle: Sensor, turn-off variant 1) | 15.8 nM | 13.3 nM | 
UUCACAUGGACAUGAGAUCACAUGAGGAUCACCCAUGUGAAUAACAAGCUUUUUGCUCGUCUUAUGUCCAAUAAUAA [Stov1/14-C1] (Eterna round: R97, puzzle: Sensor, turn-off variant 1) | 14 nM | 12.8 nM | 
UUCACGUCAGGAUAUCCAUAUUUCUGAUAUAACGGUACUUUGGAGAAGGGACAUGAGGAUCACCCAUGUCCUCU [LRO-Excl4-19-Nando 22 Mod] (Eterna round: R97, puzzle: Exclusion 4) | 15.5 nM | 16.9 nM | 
UUCAUGUGAGGAUAUGUGUACUGCUUUCUGUUUAGAUGUACACAGAAGGCACAUGAGGAUCACCCAUGUAGUAC [Ex4 - 3 - 31] (puzzle: Exclusion 4) |  |  | apparent KD of MS2 coat protein [1]: 33.8 nM
UUCCAACGAGGAUAUCGAUGGUGGAACAUGAGGAUCACCCAUGUAUGAGAUAUUGUAGUUCGAGAAGGCGUUCAGU [JR_E5_Sub056] (puzzle: Exclusion 5) |  |  | apparent KD of MS2 coat protein [1]: 31.5 nM
UUCCUACAUGAGGAUCACCCAUGUCAGGAUAUAUAAAACGCUCAGAUAAAAGAGCAAGAUAGAAGGGAUUGGGA [Aquis] (Eterna round: R97, puzzle: Exclusion 1) | 14.5 nM | 15.1 nM | 
UUCCUACAUGAGGAUCACCCAUGUGAGGAUAUGCAUCGUAUUAUUCUCGUAUGUAGUAGCAGAAGGCGCAUUGG [Starry Exclusion 1.1] (Eterna round: R96, puzzle: Exclusion 1) | 82.5 nM | 29 nM | apparent KD of MS2 coat protein [2]: 15.9 nM
UUCCUACAUGAGGAUCACCCAUGUGAGGAUAUGCAUCGUAUUAUUCUCGUAUGUAGUAGCAGAAGGCGCAUUGG [Starry Exclusion 1.1] (puzzle: Exclusion 1) |  |  | apparent KD of MS2 coat protein [3]: 121 nM; apparent KD of MS2 coat protein [1]: 36.9 nM; apparent KD of MS2 coat protein [4]: 31.2 nM
UUCCUCGUUGUGAGGAUAUCGUAUUCUUUUUGUUACGAGAAGGCACAUGAGGAUCACCCAUGUUUCUUGAUGUU [JR_BMOE4_Sub069] (puzzle: Brourd's mod of Exclusion 4) |  |  | apparent KD of MS2 coat protein [1]: 19.6 nM
UUCCUGUCAGGAUAUGACUAGAUGCACGUUAGUGUGUUUACUUAGAAGGGACAUGAGGAUCACCCAUGUAGUCC [Bring Us a Shrubbery-16] (puzzle: Exclusion 4) |  |  | apparent KD of MS2 coat protein [1]: 31.7 nM
UUCGGCGGAGGAUAUACAGUUUUUUGUUGAAUCGGCGGGAAACAUGAGGAUCACCCAUGUAGAAGGUUGUUGAA [-18.7, -16.7 kcal, A 27%] (Eterna round: R97, puzzle: Exclusion 2) | 63.3 nM | 78 nM | 
UUCGGCGGAGGAUAUACAUAUUUUUGUUGAAUCGGCGGAAAACAUGAGGAUCACCCAUGUAGAAGGUUGUUGAA [-16.3, -13.4 kcal, A 30%] (Eterna round: R97, puzzle: Exclusion 2) | 27.2 nM | 32.3 nM | 
UUCGUACAGCAAAGCUGUACGCGUACAUGAGGAUCACCCAUGUAGGAUAUGGUAGGCAAAGCUUACUAGAAGGAUAGAGUGAUC [Mat - Exclusion NG 3 - Mod of JL - D76] (Eterna round: R96, puzzle: Exclusion NG 3) | 593 nM | 582 nM | apparent KD of MS2 coat protein [2]: 290 nM
UUCGUACAGCUUUGCUGUACGCGUACAUGAGGAUCACCCAUGUAGGAUAUGGUAGGCAAAGCUUACUAGAAGGAUAGAGUGAUC [Mat - Exclusion NG 3 - Mod of JL - D75] (Eterna round: R96, puzzle: Exclusion NG 3) | 244 nM | 238 nM | apparent KD of MS2 coat protein [2]: 96.2 nM
UUCGUUUUAGGAUAUACAGGGUUGGUCGACAACUCACUGUCACAUGAGGAUCACCCAUGUAGAAGGGAGAGAAG [Eternabot (L1) Solution 49] (Eterna round: R97, puzzle: Exclusion 2) | 244 nM | 198 nM | 

Sequence | apparent KD of MS2 coat protein (input ligand: FMN 200 uM) | apparent KD of MS2 coat protein (input ligand: none) | further results
UUCUUUAUACGAGGAUAUCAUACAUGAGGAUCACCCAUGUGGCUGGGUCUGUUUUUAUAUAAUAUUGAGAAGGCGUUUUGCUAU [JR_ExcNG2_Sub072] (Eterna round: R96, puzzle: Exclusion NG 2) | 223 nM | 80.9 nM | apparent KD of MS2 coat protein [2]: 70.5 nM
UUGAAACAUACCUCCAUAAACAUGAGGAUCACCCAUGUAAGUGAGGAUAUAGAUUGAUUAGUAUACUAGAAGGCACUUAGAUAU [JR_ExcNG3_Sub043] (Eterna round: R96, puzzle: Exclusion NG 3) | 10.4 nM | 10.5 nM | apparent KD of MS2 coat protein [2]: 10.8 nM
UUGAACUUAGGAUAUUGGUUCAGCUACAUGAGGAUCACCCAUGUGGUACCUAGCUGAGGUCAAGAAGGGAGUGUUG [EX5 B.12] (Eterna round: R97, puzzle: Exclusion 5) | 25.6 nM | 20.6 nM | 
UUGAAGUCAUCAGGAUAUAGUAUUAAAGACAUUUAUAUUUUCAAACAUGAGGAUCACCCAUGUCGCUAGAAGGGAUUAUAGAUU [JR_ExcNG2_Sub080] (Eterna round: R96, puzzle: Exclusion NG 2) |  |  | apparent KD of MS2 coat protein [2]: 36.6 nM
UUGAGACAUGAGGAUCACCCAUGUAAGGAUAUAGUCGUCUGGUGGUCUCGGGUGGUGGCUAGAAGGUGCGUGCG [-15.7, 14.3 kcal, A 20%] (Eterna round: R97, puzzle: Exclusion 1) | 241 nM | 239 nM | 
UUGAUGUAAGGAUAUCGUGCAAGUUUCAAAAGAGGCUUGUGCGAGAAGGUACAUGAGGAUCACCCAUGUAGGUU [Omei Ex4 B8] (Eterna round: R97, puzzle: Exclusion 4) | 113 nM | 31.7 nM | 
UUGAUGUGAGGAUAUAUUUUGUGUUUUCUUUAUGUUUUAUAACUUGAGGAUCACCCAAGUAGAAGGCGCUACGU [JR_Ex2_Sub065] (Eterna round: R97, puzzle: Exclusion 2) | 119 nM | 60.6 nM | 
UUGAUGUGAGGAUAUGUGAUCUGCCUUCUAUAUAGAUGAUUACAGAAGGCACAUGAGGAUCACCCAUGUAGAUC [Ex4 - 3 - 24] (puzzle: Exclusion 4) |  |  | apparent KD of MS2 coat protein [1]: 49.2 nM
UUGCGAAGAGGAUAUUUUGUCAUCAACAUGAGGAUCACCCAUGUCUUCCUUUAUGCUAUAGAAGAAGGCUUCCAGU [Eternabot (L2) Solution 63] (Eterna round: R97, puzzle: Exclusion 5) | 59.9 nM | 37.1 nM | 
UUGGAGAUAGGAUAUACGAGGAGAGUAGAGGGAAGGUGAUGACAUGAGGAUCACCCAUGUAGAAGGAUCAGGAG [JR_Exclu2_Sub068] (puzzle: Exclusion 2) |  |  | apparent KD of MS2 coat protein [1]: 112 nM
UUGGAUAUCUAUGGGAGUAACAUGAGGAUCACCCAUGUAUGUCUUGUUUUUUGUUCGUCAUAGGCCAUUUGAUUGGA [JR_SV3TOV1_Sub025] (puzzle: Sensor v3, turn-off variant 1) |  |  | apparent KD of MS2 coat protein [3]: 78.8 nM; apparent KD of MS2 coat protein [1]: 140 nM; apparent KD of MS2 coat protein [4]: 94.6 nM
UUGGUGUCAGGAUAUGCUUAAUGUGUUUUAUUAUAAUAUAUACAUGAGGAUCACCCAUGUAGAAGGGACAUUGU [LRO-Excl2-09-Fireball XL5] (Eterna round: R97, puzzle: Exclusion 2) | 48 nM | 48.5 nM | 
UUGGUUGGUGUAGGAUAUGUAUGAGGAUCACCCAUUAAUAAAUUUUAACCACGAGGAUCACCCGUGUAGAAGGACAUUGGUUAU [pwkr exNG2 2xF5 1xFMN.22] (Eterna round: R96, puzzle: Exclusion NG 2) | 52 nM | 57.4 nM | apparent KD of MS2 coat protein [2]: 42.1 nM
UUGGUUGUGGUAGGAUAUCCGUUGGAAACCUUCGGAGAAGGACCACAGUCACUGGGUCUUUGUCUGGUGGACGGUGAAAACCGU [pwkr exNG1 F6.22] (Eterna round: R96, puzzle: Exclusion NG 1) | 138 nM | 730 nM | apparent KD of MS2 coat protein [2]: 498 nM
UUGGUUGUGGUAGGAUAUCCGUUGGAAACUGUUGGAGAAGGACCACAGUCACUGGGUCUUUGUUUGGUGGAGUGGAAGAACCAU [pwkr exNG1 F6.18] (Eterna round: R96, puzzle: Exclusion NG 1) | 166 nM | 324 nM | apparent KD of MS2 coat protein [2]: 532 nM
UUGUAACAUGAGGAUCACCCAUGUGAGGAUAUGGCCCGCCCGGCGUGAGCUGGUUUUGUCAGAAGGCGCAUAGG [salish99_ex1_r4_022] (Eterna round: R97, puzzle: Exclusion 1) | 158 nM | 49.9 nM | 
